US20210041439A1

Tests used:
[1] = tested on: cyclin E (substrate of the in vitro ubiquitylation assay)
[2] = molecular target: biotinylated phosphorylated cyclin E degron peptide; assay: ALPHAscreen, 1536-well primary screen, n=518 plates
[3] = molecular target: biotinylated phosphorylated cyclin E degron peptide; assay: ALPHAscreen, 384-well; His-FBW7 on Ni-chelate acceptor beads, biotin-peptide on streptavidin donor beads
[4] = molecular target: biotinylated phosphorylated cyclin E degron peptide; assay: ALPHAscreen, 384-well LOPAC screen; 25 nM FBW7 and 25 nM cyclin E phosphopeptide

Row | signal-to-background (S:B) (Wt-FBW7+pCycE-peptide high control versus Wt-FBW7+unphosphorylated CycE peptide low control) [2] | fold ALPHA signal, phosphorylated versus unphosphorylated cyclin E degron peptide [3] [fold] | S:B ratio (wt-FBW7 high control versus mutant FBW7 low control, both with cyclin E phosphopeptide) [4] | Substance | reconstituted in vitro Cyclin E polyubiquitylation assay [1]
1 |  |  |  | mutant FBW7 R505L (FBW7^ARG), recombinant dimeric Skp1-FBW7 complex | FBW7^ARG was inactive
2 |  |  |  | wild-type F-box/WD repeat-containing protein 7 (FBW7), recombinant dimeric Skp1-FBW7 complex | wt-FBW7 was highly active
3 | 69.3 | 100 | 14.6 | wild-type F-box/WD repeat-containing protein 7 (FBW7), recombinant dimeric Skp1-FBW7 complex (from UniProt P63208 1-163) (enzyme) | 
